The term Kd denotes the free concentration of one partner at which half of the binding sites on the other are occupied at equilibrium, for simple one-to-one binding.

The target in test [1] is his 태그가 부착된 재조합 인간 CD38 (recombinant human CD38 extracellular domain, His-tagged) (human) (UniProt P28907). Description: ForteBio (BLI), 1:1 fit. On the technique in general: BLI is a label-free optical method that tracks binding on a fibre tip over time.
For test [2], the target named is 인간 CD38 (human CD38, full length, on cells) (human) (UniProt P28907). Description: cell-based or functional assay.

Consider IB4 (antibody), for which the Kd in test [1] came out at 9 nM.

For the substance 다라투무맙 (daratumumab) (antibody), the CD38 시클라제 활성 억제 in test [2] came out at 70%.

The values above are taken from KR20200019669A.
